In paper PMC6624267:

B1: CARD9^2−97 (CARD9 CARD alone), wild type [human] / itself (parent)
chain: SDYENDDECWSVLEGFRVTLTSVIDPSRITPYLRQCKVLNPDDEEQVLSDPNLVIRKRKVGVLLDILQRTGHKGYVAFLESLELYYPQLYKKVTGK

Variants of: B1
Test: polymerization assay (absorbance at 350 nm)
Conditions: with itself; 1 mM D43R/K58D + EDTA (parent trace is 150 uM WT + EDTA); 50 mM Tris, 150 mM NaCl, 0.5 mM TCEP, pH 7.0; 25 °C; read off a plot

| response [A350] | Variant |
| --- | --- |
| 1.7 | chain 1 D42R K57D |
